From patent US20250108100A1, “C-TERMINAL FRAGMENT OF APOLIPOPROTEIN E AND APPLICATION THEREOF IN INHIBITING y-SECRETASE ACTIVITY” (SYNPHATEC (SHANGHAI) BIOPHARMACEUTICAL TECHNOLOGY CO., LTD., priority 2022, published 2025)
“Also recorded” adds a separate entry of the source.

B1: ApoE2 MD10: SEQ ID NO: 61; ApoE2 with amino acid residues at positions 244 to 254 deleted (protein)
chain: KVEQAVETEPEPELRQQTEWQSGQRWELALGRFWDYLRWVQTLSEQVQEELLSSQVTQELRALMDETMKELKAYKSELEEQLTPVAEETRARLSKELQAAQARLGADMEDVCGRLVQYRGEVQAMLGQSTEELRVRLASHLRKLRKRLLRDADDLQKCLAVYQAGAREGAERGLSAIRERLGPLVEQGRVRAATVGSLAGQPLQERAQAWGERLRARMEEMGSRTRDRLDEVKEQVAEVRAKLEAFQARLKSWFEPLVEDMQRQWAGLVEKVQAAVGTSAAPVPSDNH
B2: CT E20: SEQ ID NO: 55; multiple site mutant of ApoE CT (protein)
chain: ARMEEMGSRTRDRLDEVKEAVAEVRAKLEEQAQQIRLQAAAFQARLKSWFEPLVEDMQRAWAGLVEKVQAAVGTSAAPVASDNH
B3: monkey CT: SEQ ID NO: 62; non-human primate-derived ApoE CT, R36S+T74A+A76T versus human ApoE CT (protein)
chain: ARMEEMGSRTRDRLDEVKEQVAEVRAKLEEQAQQISLQAEAFQARLKSWFEPLVEDMQRQWAGLVEKVQAAVGASTAPVPSDNH
B4: CT A65: SEQ ID NO: 49; ApoE CT mutant V65A (V280A of SEQ ID NO: 12) (protein)
chain: ARMEEMGSRTRDRLDEVKEQVAEVRAKLEEQAQQIRLQAEAFQARLKSWFEPLVEDMQRQWAGLAEKVQAAVGTSAAPVPSDNH
B5: CT R10: SEQ ID NO: 57; ApoE CT mutant S75A + P78A + V79A + P80A + S81A + D82A + N83A + H84A (protein)
chain: ARMEEMGSRTRDRLDEVKEQVAEVRAKLEEQAQQIRLQAEAFQARLKSWFEPLVEDMQRQWAGLVEKVQAAVGTAAAAAAAAAA
B6: CT A40: SEQ ID NO: 47; ApoE CT mutant E40A (E255A of SEQ ID NO: 12); table prints CT A20 (protein)
chain: ARMEEMGSRTRDRLDEVKEQVAEVRAKLEEQAQQIRLQAAAFQARLKSWFEPLVEDMQRQWAGLVEKVQAAVGTSAAPVPSDNH
B7: CT E5: SEQ ID NO: 53; multiple site mutant of ApoE CT (protein)
chain: ARMEEMGSRARDRLAEVKEAVAEVAAKLEAQAQQARLQAAAFQAALKSWAEPLVADMQRAWAGLAEKVQAAVGTAAAPVASDNH
B8: CT LF5: SEQ ID NO: 58; ApoE CT mutant R11A + D12A + R13A + L14A + D15A (protein)
chain: ARMEEMGSRTAAAAAEVKEQVAEVRAKLEEQAQQIRLQAEAFQARLKSWFEPLVEDMQRQWAGLVEKVQAAVGTSAAPVPSDNH
B9: CT A72: SEQ ID NO: 50; ApoE CT mutant V72A (V287A of SEQ ID NO: 12) (protein)
chain: ARMEEMGSRTRDRLDEVKEQVAEVRAKLEEQAQQIRLQAEAFQARLKSWFEPLVEDMQRQWAGLVEKVQAAAGTSAAPVPSDNH
B10: CT A60: SEQ ID NO: 48; ApoE CT mutant Q60A (Q275A of SEQ ID NO: 12) (protein)
chain: ARMEEMGSRTRDRLDEVKEQVAEVRAKLEEQAQQIRLQAEAFQARLKSWFEPLVEDMQRAWAGLVEKVQAAVGTSAAPVPSDNH
B11: CT A80: SEQ ID NO: 51; ApoE CT mutant P80A (P295A of SEQ ID NO: 12) (protein)
chain: ARMEEMGSRTRDRLDEVKEQVAEVRAKLEEQAQQIRLQAEAFQARLKSWFEPLVEDMQRQWAGLVEKVQAAVGTSAAPVASDNH
B12: CT F5: SEQ ID NO: 56; multiple site mutant of ApoE CT (protein)
chain: AAAAAMGSRTRDRLDEVKEQVAEVRAKLEEQAQQIRLQAEAFQARLKSWFEPLVEDMQRQWAGLVEKVQAAVGTSAAPVPSDNH
B13: CT A36/74: SEQ ID NO: 52; ApoE CT mutant R36A + T74A (R251A + T289A of SEQ ID NO: 12) (protein)
chain: ARMEEMGSRTRDRLDEVKEQVAEVRAKLEEQAQQIALQAEAFQARLKSWFEPLVEDMQRQWAGLVEKVQAAVGASAAPVPSDNH
B14: CT A20: SEQ ID NO: 46; ApoE CT mutant Q20A (Q235A of SEQ ID NO: 12) (protein)
chain: ARMEEMGSRTRDRLDEVKEAVAEVRAKLEEQAQQIRLQAEAFQARLKSWFEPLVEDMQRQWAGLVEKVQAAVGTSAAPVPSDNH
B15: CT E10: SEQ ID NO: 54; multiple site mutant of ApoE CT (protein)
chain: ARMEEMGSRARDRLDEVKEAVAEVRAKLEAQAQQIRLQAAAFQARLKSWAEPLVEDMQRAWAGLVEKVQAAVGTSAAPVASDNH
B16: CT LM5: SEQ ID NO: 59; ApoE CT mutant E23A + V24A + R25A + K27A (protein)
chain: ARMEEMGSRTRDRLDEVKEQVAAAAAALEEQAQQIRLQAEAFQARLKSWFEPLVEDMQRQWAGLVEKVQAAVGTSAAPVPSDNH
B17: ApoE2-M3F: SEQ ID NO: 60; ApoE2 with 3×FLAG added between residues 215 and 216 (protein)
chain: KVEQAVETEPEPELRQQTEWQSGQRWELALGRFWDYLRWVQTLSEQVQEELLSSQVTQELRALMDETMKELKAYKSELEEQLTPVAEETRARLSKELQAAQARLGADMEDVCGRLVQYRGEVQAMLGQSTEELRVRLASHLRKLRKRLLRDADDLQKCLAVYQAGAREGAERGLSAIRERLGPLVEQGRVRAATVGSLAGQPLQERAQAWGERLRGSGGSDYKDHDGDYKDHDIDYKDDDDKSGSGSARMEEMGSRTRDRLDEVKEQVAEVRAKLEEQAQQIRLQAEAFQARLKSWFEPLVEDMQRQWAGLVEKVQAAVGTSAAPVPSDNH
modifications: 3xFLAG inserted between residues 215 and 216

Test system: human APP co-expressed in HEK 293T cells
Assay: α-CTF produced by APP co-expressed in HEK 293T cells (Western blot)
Type: cell-based
Details: for α-CTF produced by co-expressed APP: Western blot, vs GFP control; for degree of α-CTF increase compared to ApoE CT: ApoE CT positive control
Experimental: • a) A plasmid expressing the target protein in mammalian cells was constructed, and the protein expression promoter is CAG. • b) The target protein was expressed in HEK 293T cell line. Cells were subcultured one day before transfection, and transfection was performed when the degree of cell adhesion reached 70%-80%. The transfection reagent was lipofectamine2000 (ThermoFisher). • c) 4-6 hours post transfection, the medium were replaced with fresh cell culture medium. • d) 36-48 hours post transfection, the cells were lysed (10% 1M tris-HCl (pH=6.8), 4% SDS, 20% glycerol, 0.01% bromophenol blue), and the protein samples were collected and used for Western blot or stored in a −80° C. freezer. • e) Polyacrylamide gel electrophoresis. Before protein loading, the protein was boiled at 98° C. for 10 min, and then centrifuged at 12000 rpm for 10 min. Electrophoresis: 80V for the upper stacking gel; 120V for the lower separating gel. • f) Protein transfer. The filter paper was soaked in the electrophoresis solution before use, and the PVDF membrane was put in methanol for 10s to activate, and the gel after electrophoresis was taken out from the electrophoresis tank, put in the order of filter paper—PVD membrane—gel-filter paper from bottom to top, and they were put into the transfer instrument, with transferring in constant current at 0.1 A for 70 min. • g) Blocking and antibody incubation: the transferred PVDF membrane was placed in 5% BSA/TBST blocking solution, and blocked on a shaker at room temperature for 1 hour. The primary antibody was used to incubate at 4° C. overnight on a shaker (12-16 h); 1×TBST was used to wash three times, once every 10 minutes; the secondary antibody was used to incubate, shaked at room temperature for 1-2 h; 1×TBST was used to wash three times, once every 10 minutes. • h) Imaging by development: development was performed with ECL chemiluminescence hypersensitive chromogenic reagent.
Plasmids were transfected in HEK 293T or N2A cells for 36-48 hours and then lysed in cell lysis buffer [10% 1M tris-HCl (pH=6.8), 4% SDS, 20% glycerol, 0.01% bromophenol blue]. Lysates were shaken at room temperature for 10 min, then boiled for 10 min, and centrifuged at 12,000×g for 10 min. Proteins were run on 8% or 12% Tris-glycine SDS-PAGE and transferred to PVDF membranes (Life Technologies). Samples were incubated overnight at 4° C. with primary antibody diluted in 5% BSA buffer (in 1×TBST). After washing 3 times with 1×TBST, they were incubated with secondary antibody diluted in 5% BSA buffer (in 1×TBST) for 2 hours at room temperature. Finally, after washing 3 times with 1×TBST, the signal was detected by ECL Western blotting substrate (Solarbio, PE0010).
Data were analyzed by GraphPad Prism software (v6) using unpaired, paired, or one-sample t-tests. Aβ40 and Aβ42 levels were normalized to the corresponding GFP controls. α-CTF levels were normalized to FL-APP and corresponding GFP controls. All data are represented as mean±SEM. Statistical significance was defined as p<0.05. One, two, three and four stars (*) in the graph indicate p-values <0.05, <0.01, <0.001 and <0.0001, respectively.

| Molecule | α-CTF produced by co-expressed APP | degree of α-CTF increase compared to ApoE CT | α-CTF produced by co-expressed APP (listed as ApoE CT from a non-human primate) |
| --- | --- | --- | --- |
| B1 | significantly increases α-CTF; also recorded: also increased α-CTF | – | – |
| B2 | can no longer increase α-CTF; also recorded: failed to increase | – | – |
| B3 | also increase α-CTF | identical to that of human ApoE CT | significantly increased α-CTF |
| B4 | significantly increased α-CTF | – | – |
| B5 | still significantly increase α-CTF; also recorded: can also significantly increase α-CTF | – | – |
| B6 | significantly increased α-CTF | – | – |
| B7 | can no longer increase α-CTF; also recorded: failed to increase | – | – |
| B8 | still significantly increase α-CTF; also recorded: can also significantly increase α-CTF | – | – |
| B9 | significantly increased α-CTF | even higher | – |
| B10 | significantly increased α-CTF | – | – |
| B11 | significantly increased α-CTF | even higher | – |
| B12 | can no longer increase α-CTF; also recorded: failed to increase | – | – |
| B13 | significantly increased α-CTF | even higher | – |
| B14 | significantly increased α-CTF | – | – |
| B15 | can no longer increase α-CTF; also recorded: failed to increase | – | – |
| B16 | still significantly increase α-CTF; also recorded: can also significantly increase α-CTF | – | – |
| B17 | significantly increases α-CTF; also recorded: increased α-CTF | – | – |
